Assay results from the Human Domainome abundance scans (Beltran et al. 2025).
± gives the uncertainty stated by the source.

B1: Retinoic acid receptor RXR-alpha, residues 132 to 208; numbered along this chain, P19793 (parent)
chain: KHICAICGDRSSGKHYGVYSCEGCKGFFKRTVRKDLTYTCRDNKDCLIDKRQRNRCQYCRYQKCLAMGMKREAVQEE
B2: Friend leukemia integration 1 transcription factor, residues 116 to 197; numbered along this chain, Q01543 (parent)
chain: NMTTNERRVIVPADPTLWTQEHVRQWLEWAIKEYSLMEIDTSFFQNMDGKELCKMNKEDFLRATTLYNTEVLLSHLSYLRES

Variants of: B1
Experiment: abundance fitness (aPCA) (normalised: wild type 0, dead -1); higher = more abundant; growth selection in yeast, the domain comes from the species named
Conditions: Homo sapiens
For V74L, the abundance fitness was -0.046 ± 0.027.
Variant R53T has an abundance fitness of 0.063 ± 0.031.
Work on R53S yielded an abundance fitness of -0.076 ± 0.029.
Work on R53W yielded an abundance fitness of 0.006 ± 0.044.
Variant R53Q has an abundance fitness of -0.028 ± 0.043.
Variant A66S has an abundance fitness of 0.015 ± 0.027.
With T31L the abundance fitness was -0.136 ± 0.025.
For T31Q, the abundance fitness was -0.079 ± 0.039.
Work on T31E yielded an abundance fitness of -0.188 ± 0.038.
Work on T31S yielded an abundance fitness of -0.02 ± 0.026.
T31W showed an abundance fitness of -0.043 ± 0.034.
T31I showed an abundance fitness of -0.092 ± 0.034.
Work on Q57N yielded an abundance fitness of -0.052 ± 0.069.
With Q57W the abundance fitness was -0.026 ± 0.036.
Q57D gave an abundance fitness of 0.05 ± 0.057.
In the case of Q57Y, the abundance fitness is reported as -0.065 ± 0.065.
With D35Y the abundance fitness was -0.131 ± 0.21.
K44T showed an abundance fitness of 0.057 ± 0.046.
Variant K44V has an abundance fitness of -0.035 ± 0.031.
Work on T39S yielded an abundance fitness of 0.03 ± 0.036.
Work on T39K yielded an abundance fitness of 0.027 ± 0.044.
In the case of T39Q, the abundance fitness is reported as -0.033 ± 0.046.
For T39H, the abundance fitness was 0.134 ± 0.092.
Work on L65T yielded an abundance fitness of 0.057 ± 0.053.
For L65A, the abundance fitness was -0.038 ± 0.036.
In the case of R71Q, the abundance fitness is reported as 0.001 ± 0.034.
For R71N, the abundance fitness was 0.015 ± 0.038.
Variant R71D has an abundance fitness of 0.065 ± 0.036.
Work on R71M yielded an abundance fitness of -0.01 ± 0.032.
For T37C, the abundance fitness was 0.074 ± 0.051.
With T37H the abundance fitness was 0.053 ± 0.052.
Variant T37A has an abundance fitness of 0.026 ± 0.037.
Work on T37Q yielded an abundance fitness of 0.059 ± 0.049.
With T37F the abundance fitness was -0.046 ± 0.067.
T37D gave an abundance fitness of 0.082 ± 0.058.
In the case of T37L, the abundance fitness is reported as -0.05 ± 0.034.
C4D gave an abundance fitness of -0.807 ± 0.11.
Work on C4P yielded an abundance fitness of -0.99 ± 0.1.
C4M showed an abundance fitness of -1.08 ± 0.16.
C4K gave an abundance fitness of -1.23 ± 0.2.
For C4G, the abundance fitness was -0.914 ± 0.059.
Variant I6S has an abundance fitness of -0.438 ± 0.036.
In the case of I6G, the abundance fitness is reported as -0.386 ± 0.068.
I6L gave an abundance fitness of -0.124 ± 0.03.
With I6C the abundance fitness was 0.008 ± 0.048.
I6R showed an abundance fitness of -0.687 ± 0.065.
I6N gave an abundance fitness of -0.439 ± 0.048.
In the case of C40D, the abundance fitness is reported as -0.314 ± 0.083.
Work on C40R yielded an abundance fitness of -0.659 ± 0.053.
C46P showed an abundance fitness of -0.155 ± 0.045.
C46L showed an abundance fitness of -0.378 ± 0.044.
With Y38S the abundance fitness was -0.031 ± 0.039.
For Y38T, the abundance fitness was 0.036 ± 0.047.
For Y38F, the abundance fitness was 0.078 ± 0.071.
Variant K1H has an abundance fitness of -0.222 ± 0.06.
Variant K1W has an abundance fitness of -0.341 ± 0.076.
With K1S the abundance fitness was -0.299 ± 0.042.
N43D gave an abundance fitness of -0.181 ± 0.12.
For N43I, the abundance fitness was 0.019 ± 0.075.
For N43G, the abundance fitness was 0.053 ± 0.031.
N43P gave an abundance fitness of -0.065 ± 0.052.
For G8E, the abundance fitness was 0.005 ± 0.069.
Work on G8F yielded an abundance fitness of 0.006 ± 0.036.
Variant G8L has an abundance fitness of -0.179 ± 0.03.
G8C gave an abundance fitness of -0.027 ± 0.045.
Work on G8N yielded an abundance fitness of -0.017 ± 0.035.
For G8S, the abundance fitness was -0.041 ± 0.03.
G8H gave an abundance fitness of -0.062 ± 0.037.
For G8V, the abundance fitness was -0.228 ± 0.034.
Work on G8T yielded an abundance fitness of 0.016 ± 0.035.
For R30Q, the abundance fitness was -0.129 ± 0.049.
For R30T, the abundance fitness was -0.124 ± 0.041.
For R30F, the abundance fitness was -0.362 ± 0.11.
Work on R30P yielded an abundance fitness of -0.554 ± 0.072.
In the case of G68R, the abundance fitness is reported as -0.238 ± 0.038.
In the case of G68M, the abundance fitness is reported as -0.26 ± 0.046.
With M67K the abundance fitness was 0.007 ± 0.036.
M67G gave an abundance fitness of -0.023 ± 0.026.
M67P showed an abundance fitness of -0.621 ± 0.052.
In the case of M67F, the abundance fitness is reported as -0.017 ± 0.032.
Work on L47Y yielded an abundance fitness of -0.03 ± 0.062.
In the case of L47W, the abundance fitness is reported as 0.005 ± 0.035.
L47D gave an abundance fitness of -0.072 ± 0.055.
Work on M69T yielded an abundance fitness of -0.343 ± 0.042.
For S11T, the abundance fitness was -0.089 ± 0.028.
In the case of S11W, the abundance fitness is reported as -0.066 ± 0.031.
In the case of S11E, the abundance fitness is reported as -0.072 ± 0.035.
With S11F the abundance fitness was -0.087 ± 0.031.
S11D gave an abundance fitness of -0.014 ± 0.036.
Work on S11C yielded an abundance fitness of -0.015 ± 0.032.

Variants of: B2
Experiment: as above
Conditions: Homo sapiens
In the case of T3Q, the abundance fitness is reported as -0.136 ± 0.12.
Work on T3N yielded an abundance fitness of -0.076 ± 0.44.
T3C gave an abundance fitness of 0.009 ± 0.2.
With T3L the abundance fitness was -0.076 ± 0.076.
Work on T3E yielded an abundance fitness of -0.392 ± 0.3.
In the case of T3F, the abundance fitness is reported as 0.111 ± 0.41.
With T3M the abundance fitness was 0.037 ± 0.11.
T3K showed an abundance fitness of 0.185 ± 0.18.
T3V showed an abundance fitness of -0.201 ± 0.13.
T3S gave an abundance fitness of 0.06 ± 0.14.
In the case of T3H, the abundance fitness is reported as -0.359 ± 0.15.
T3R showed an abundance fitness of -0.169 ± 0.094.
Work on T3P yielded an abundance fitness of -0.246 ± 0.089.
In the case of T3A, the abundance fitness is reported as 0.089 ± 0.16.
T3D showed an abundance fitness of -0.537 ± 0.5.
Variant T3I has an abundance fitness of -0.078 ± 0.21.
Variant T3W has an abundance fitness of -0.022 ± 0.096.
In the case of T3Y, the abundance fitness is reported as -0.201 ± 0.44.
Work on T3G yielded an abundance fitness of -0.098 ± 0.11.
T4I gave an abundance fitness of 0.017 ± 0.15.
T4W showed an abundance fitness of -0.03 ± 0.17.
Work on T4G yielded an abundance fitness of -0.065 ± 0.11.
T4D gave an abundance fitness of 0.045 ± 0.14.
In the case of T4M, the abundance fitness is reported as -0.075 ± 0.18.
Variant T4Q has an abundance fitness of -0.085 ± 0.092.
With T4K the abundance fitness was -0.005 ± 0.1.
For T4H, the abundance fitness was -0.115 ± 0.1.
Work on T4N yielded an abundance fitness of 0.076 ± 0.23.
T4P showed an abundance fitness of -0.037 ± 0.095.
T4A showed an abundance fitness of 0.069 ± 0.089.
With T4F the abundance fitness was -0.048 ± 0.12.
T4V showed an abundance fitness of 0.003 ± 0.09.
Variant N5P has an abundance fitness of -0.017 ± 0.078.
For N5R, the abundance fitness was -0.042 ± 0.054.
N5S gave an abundance fitness of -0.152 ± 0.1.
Variant N5F has an abundance fitness of -0.089 ± 0.21.
In the case of N5Q, the abundance fitness is reported as -0.228 ± 0.12.
Variant N5M has an abundance fitness of -0.127 ± 0.12.
Variant N5D has an abundance fitness of -0.011 ± 0.13.
N5G showed an abundance fitness of -0.042 ± 0.066.
For N5C, the abundance fitness was 0.019 ± 0.2.
N5E gave an abundance fitness of -0.039 ± 0.099.
Work on N5Y yielded an abundance fitness of -0.121 ± 0.12.
With N5K the abundance fitness was 0.004 ± 0.064.
Work on N5H yielded an abundance fitness of -0.06 ± 0.23.
With N5T the abundance fitness was 0.056 ± 0.08.
In the case of M2R, the abundance fitness is reported as 0.057 ± 0.089.
For M2G, the abundance fitness was 0.119 ± 0.12.
With M2I the abundance fitness was -0.081 ± 0.12.
With M2V the abundance fitness was -0.584 ± 0.11.
Work on M2D yielded an abundance fitness of -0.545 ± 0.48.
For M2T, the abundance fitness was -0.231 ± 0.13.
M2F gave an abundance fitness of 0.092 ± 0.17.
M2Q gave an abundance fitness of 0.011 ± 0.16.
M2L gave an abundance fitness of -0.005 ± 0.07.
M2P showed an abundance fitness of -0.099 ± 0.13.
In the case of M2N, the abundance fitness is reported as -0.184 ± 0.31.
In the case of M2K, the abundance fitness is reported as -0.314 ± 0.14.
With M2E the abundance fitness was -0.361 ± 0.18.
M2W showed an abundance fitness of -0.057 ± 0.14.
For E6I, the abundance fitness was -0.087 ± 0.15.
For E6A, the abundance fitness was -0.185 ± 0.095.
Variant E6C has an abundance fitness of -0.23 ± 0.39.
E6H showed an abundance fitness of -0.377 ± 0.49.
Variant E6M has an abundance fitness of -0.163 ± 0.15.
For E6F, the abundance fitness was -0.435 ± 0.21.
In the case of E6G, the abundance fitness is reported as -0.179 ± 0.09.
E6L showed an abundance fitness of 0.001 ± 0.068.
N1V showed an abundance fitness of -0.166 ± 0.12.
N1L gave an abundance fitness of -0.137 ± 0.45.
For N1K, the abundance fitness was -0.34 ± 0.35.
With N1M the abundance fitness was -0.031 ± 0.19.
With N1R the abundance fitness was -0.111 ± 0.2.
For N1I, the abundance fitness was 0.178 ± 0.41.
Variant N1G has an abundance fitness of -0.212 ± 0.14.
Work on N1Y yielded an abundance fitness of 0.004 ± 0.3.
Work on N1A yielded an abundance fitness of -0.076 ± 0.25.
